Data taken from patent publication US20130040853A1, “Context Specific Genetic Screen Platform to Aid in Gene Discovery and Target Validation” (Dana-Farber Cancer Institute Inc., priority 2010, published 2013).

Tests used:
[1] = system: HMEL-BRAF^V600E melanocytes; test: In vivo functional genetic screen and secondary validation: kinase-transduced HMEL cells implanted in nude mice; parameters: species or system human; settings: for Tumorigenicity in vivo: WT or mutant kinase expressed individually
Source text: A ‘cancer-kinase’ library was constructed containing sequence-verified ORFs in a lentiviral vector for 110 of the 120 kinases reported to sustain somatic driver mutations in diverse human cancers. This library was pooled and introduced into a human HMEL-BRAF^V600E melanocyte model system engineered with BRAF^V600E and TERT as well as p53DD and CDK4-R24C to inactivate the […] pathways, respectively. The HMEL-BRAF^V600E melanocyte profile, while representing the most common clinically-definable genetic profile in human melanoma, is insufficient to drive efficient melanoma formation following orthotopic transplantation in the skin (penetrance of 10% and latency of 26 weeks). In contrast, 40% of HMEL-BRAF^V600E melanocytes transduced with the cancer kinase pools developed tumors with an average latency of 13 weeks (range 10-18 weeks).
In vivo functional genetic screens: Lentivirus were prepared by co-transfecting 293T cells with individual vector backbones and standard virus packaging systems for subsequent collection of viral supernatants. Viral supernatants were then pooled randomly to generate 8 pools of high-titer lentiviral stocks. HMEL cells were transduced with either GFP control lentivirus or each representative lentiviral pool in the presence of 8 ug/ml polybrene (Company). Infected cells were expanded, mixed 1:1 with Matrigel (BD Bioscience) and then subcutaneously implanted in female nude animals (Taconic) at 1×10^6 cells per site on both flanks. Primary INK4A/ARF−/−, PTEN−/− murine astrocytes were transduced with either GFP control lentivirus or each representative lentiviral pool in the presence of 8 ug/ml polybrene (Company). Infected cells were expanded implanted into the brain parenchyma of female SCID mice (Charles River). Briefly, SCID mice were anesthetized and placed into a stereotactic apparatus equipped with a Z axis (Stoelting). A small hole was bored in the skull 0.5 mm anterior and 3.0 mm lateral to the bregma using a dental drill. Twenty thousand cells in Hank's Buffered Salt Solution were injected into the right caudate nucleus 2 mm below the surface of the brain using a 10-ul Hamilton syringe with an unbeveled 30 gauge needle. The scalp was closed using a 9-mm Autoclip Applier. Animals were followed daily for the development of subQ tumors or signs of neurological deficits. Animals were sacrifice, tumors were harvested, genomic DNA was prepared and kinases expressed in each tumor identified using PCR sequencing using plasmid specific CMV and V5 primers. Expression of each kinase was further validated by western blot analysis. Kinases expressed in each tumor were then enlisted into secondary validation screens in which stable HMEL or mouse astrocyte lines were generated expressing each kinase individually. Cells were again expanded and then implanted in female nude or SCID animals. All mice were housed and treated in accordance with protocols approved by the institutional care and use committees for animal research at the Dana-Farber Cancer Institute.

cJUN phosphorylation = test: JNK Kinase Assay (WT and mutant kinases immunoprecipitated from HMEL cells); format: biochemical, human; settings: as reported by level of cJUN phosphorylation; for MAP2K4/7 first incubated with inactive JNK2

| Molecule | tumor generation individually in secondary HMEL screens ([1]; kinase transduced individually) | Kinase Activity (cJUN phosphorylation) | Tumorigenicity in vivo [1] |
| --- | --- | --- | --- |
| MAP2K7 WT: wild type MAP2K7 kinase ORF expressed in HMEL cells (protein, UniProt O14733 2-419, looked up) Dual specificity …: AASSLEQKLSRLEAKLKQENREARRRIDLNLDISPQRPRPTLQLPLANDGGSRSPSSESSPQHPTPPARPRHMLGLPSTLFTPRSMESIEIDQKLQEIMKQTGYLTIGGQRYQAEINDLENLGEMGSGTCGQVWKMRFRKTGHVIAVKQMRRSGNKEENKRILMDLDVVLKSHDCPYIVQCFGTFITNTDVFIAMELMGTCAEKLKKRMQGPIPERILGKMTVAIVKALYYLKEKHGVIHRDVKPSNILLDERGQIKLCDFGISGRLVDSKAKTRSAGCAAYMAPERIDPPDPTKPDYDIRADVWSLGISLVELATGQFPYKNCKTDFEVLTKVLQEEPPLLPGHMGFSGDFQSFVKDCLTKDHRKRPKYNKLLEHSFIKRYETLEVDVASWFKDVMAKTESPRTSGVLSQPHLPFFR | did not generate tumors | 1X |  |
| MAP2K4 p.Q142L: MAP2K4 somatic driver mutant, observed in colorectal adenocarcinoma (protein, UniProt P45985 2-399, looked up, variant Q142L) Dual specificity …: AAPSPSGGGGSGGGSGSGTPGPVGSPAPGHPAVSSMQGKRKALKLNFANPPFKSTARFTLNPNPTGVQNPHIERLRTHSIESSGKLKISPEQHWDFTAEDLKDLGEIGRGAYGSVNKMVHKPSGQIMAVKRIRSTVDEKELKQLLMDLDVVMRSSDCPYIVQFYGALFREGDCWICMELMSTSFDKFYKYVYSVLDDVIPEEILGKITLATVKALNHLKENLKIIHRDIKPSNILLDRSGNIKLCDFGISGQLVDSIAKTRDAGCRPYMAPERIDPSASRQGYDVRSDVWSLGITLYELATGRFPYPKWNSVFDQLTQVVKGDPPQLSNSEEREFSPSFINFVNLCLTKDESKRPKYKELLKHPFILMYEERAVEVACYVCKILDQMPATPSSPMYVD |  | 4X | YES |
| JNK1 P.G171S: JNK1 somatic mutant, observed in renal clear cell carcinoma (protein, UniProt P45983 1-427, looked up, variant G171S) Mitogen-activated protein …: MSRSKRDNNFYSVEIGDSTFTVLKRYQNLKPIGSGAQGIVCAAYDAILERNVAIKKLSRPFQNQTHAKRAYRELVLMKCVNHKNIIGLLNVFTPQKSLEEFQDVYIVMELMDANLCQVIQMELDHERMSYLLYQMLCGIKHLHSAGIIHRDLKPSNIVVKSDCTLKILDFSLARTAGTSFMMTPYVVTRYYRAPEVILGMGYKENVDLWSVGCIMGEMVCHKILFPGRDYIDQWNKVIEQLGTPCPEFMKKLQPTVRTYVENRPKYAGYSFEKLFPDVLFPADSEHNKLKASQARDLLSKMLVIDASKRISVDEALQHPYINVWYDPSEAEAPPPKIPDKQLDEREHTIEEWKELIYKEVMDLEERTKNGVIRGQPSPLGAAVINGSQHPSSSSSVNDVSSMSTDPTLASDTDSSLEAAAGPLGCCR |  | 1X | YES |
| MAP2K4 p.R154W: MAP2K4 somatic driver mutant, observed in colorectal adenocarcinoma (protein, UniProt P45985 2-399, looked up, variant R154W) Dual specificity …: AAPSPSGGGGSGGGSGSGTPGPVGSPAPGHPAVSSMQGKRKALKLNFANPPFKSTARFTLNPNPTGVQNPHIERLRTHSIESSGKLKISPEQHWDFTAEDLKDLGEIGRGAYGSVNKMVHKPSGQIMAVKRIRSTVDEKEQKQLLMDLDVVMWSSDCPYIVQFYGALFREGDCWICMELMSTSFDKFYKYVYSVLDDVIPEEILGKITLATVKALNHLKENLKIIHRDIKPSNILLDRSGNIKLCDFGISGQLVDSIAKTRDAGCRPYMAPERIDPSASRQGYDVRSDVWSLGITLYELATGRFPYPKWNSVFDQLTQVVKGDPPQLSNSEEREFSPSFINFVNLCLTKDESKRPKYKELLKHPFILMYEERAVEVACYVCKILDQMPATPSSPMYVD |  | 3X | YES |
